Measurements: article PMC10161063 (Proceedings of the National Academy of Sciences of the …, 2023)
Read-outs that look alike come from different tables or passages of the source. Where no end group is shown, it is not given here.

Columns and labels:
Test in all cases: ITC
[1] = molecular target: T1, preformed Vac8–tVac17 complex (ITC sample cell) (S. cerevisiae, UniProt P39968;P25591)
T1 sequence 1: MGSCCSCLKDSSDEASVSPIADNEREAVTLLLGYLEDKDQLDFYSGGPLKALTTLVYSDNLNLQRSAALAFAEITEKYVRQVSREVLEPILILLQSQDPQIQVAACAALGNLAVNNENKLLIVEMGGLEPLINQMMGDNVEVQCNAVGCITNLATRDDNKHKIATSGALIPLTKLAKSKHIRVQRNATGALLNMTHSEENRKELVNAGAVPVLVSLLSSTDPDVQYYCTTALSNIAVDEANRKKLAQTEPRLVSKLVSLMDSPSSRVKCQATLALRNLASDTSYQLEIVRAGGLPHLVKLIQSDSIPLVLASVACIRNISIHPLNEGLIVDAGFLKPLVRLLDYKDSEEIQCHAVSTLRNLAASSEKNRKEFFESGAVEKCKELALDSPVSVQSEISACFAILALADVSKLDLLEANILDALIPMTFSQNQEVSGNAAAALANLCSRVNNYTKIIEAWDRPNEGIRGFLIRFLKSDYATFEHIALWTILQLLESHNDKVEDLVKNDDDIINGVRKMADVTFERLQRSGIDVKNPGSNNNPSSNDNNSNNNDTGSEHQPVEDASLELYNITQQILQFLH
T1 sequence 2: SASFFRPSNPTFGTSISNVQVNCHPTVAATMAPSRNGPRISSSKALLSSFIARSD

[2] = molecular target: T2, Vac8 (full length, residues 1 to 578) (S. cerevisiae, UniProt P39968 1-578)
T2 sequence: T1 sequence 1

[3] = molecular target: T2, Vac8 (full length, residues 1 to 578); remark: listed apart in the source

B1: Atg13^567–695 (domain or fragment)
chain: GGNSSTSALNSRRNSLDKSSNKQGMSGLPPIFGGESTSYHHDNKIQKYNQLGVEEDDDDENDRLLNQMGNSATKFKSSISPRSIDSISSSFIKSRIPIRQPYHYSQPTTAPFQAQAKFHKPANKLIDNG
Kd [1]: 9.02 µM

B2: Halo-tag-conjugated tVac17 (Vac17 residues 290 to 344) (domain or fragment)
chain: T1 sequence 2
modifications: also: Halo-tag conjugate
Kd [2]: 2530 nM

B3: Nvj1^229–321 (domain or fragment)
chain: NREKDCSSSSEVESQSKCRKESTAEPDSLSRDTRTTSSLKSSTSFPISFKGSIDLKSLNQPSSLLHIQVSPTKSSNLDAQVNTEQAYSQPFRY
Kd [1]: 10 µM | Kd [3]: 710 nM
